15 molecules from patent US20220144956A1 (published 2022) can be followed below.

The labels stand for the following.
B1: XENP36181 H1.198 L1 (antibody, V domains shown)
VH: QLQVQESGPGLVKPSETLSLTCTVSGGSISQSYFSWGWIRQPPGKGLEWIGSFYYGGKTYYNPSLKSRATISIDTSKNQFSLKLSSVTAADTAVYYCARGPTTIRGVIDSWGQGTLVTVSS
VL: EIVLTQSPATLSLSPGERATLSCRASQSVRSYLAWYQQKPGQAPRLLIYDASNRATGIPARFSGSGSGTDFTLTISSLEPEDFAVYYCQQRSNWPPTFGQGTKVEIK
B2: XENP36182 H1.199 L1 (antibody, V domains shown)
VH: QLQVQESGPGLVKPSETLSLTCTVSGGSISQSYFSWGWIRQPPGKGLEWIGSFYYGGKTYYNPSLKSRATISIDTSKNQFSLKLSSVTAADTAVYYCARGPTVIRGVIDSWGQGTLVTVSS
VL: EIVLTQSPATLSLSPGERATLSCRASQSVRSYLAWYQQKPGQAPRLLIYDASNRATGIPARFSGSGSGTDFTLTISSLEPEDFAVYYCQQRSNWPPTFGQGTKVEIK
B3: XENP36180 H1.197 L1 (antibody, V domains shown)
VH: QLQVQESGPGLVKPSETLSLTCTVSGGSISQSYFSWGWIRQPPGKGLEWIGSFYYGGKTYYNPSLKSRATISIDTSKNQFSLKLSSVTAADTAVYYCARGPTLIRGVIDSWGQGTLVTVSS
VL: EIVLTQSPATLSLSPGERATLSCRASQSVRSYLAWYQQKPGQAPRLLIYDASNRATGIPARFSGSGSGTDFTLTISSLEPEDFAVYYCQQRSNWPPTFGQGTKVEIK
B4: XENP37821 TBRII-A_H1.274_L1 (antibody, V domains shown)
VH: QLQVQESGPGLVKPSETLSLTCTVSGGSISNAYFSWGWIRQPPGKGLEWIGSFNYGGKTYYNPSLKSRATISIDTSKNQFSLKLSSVTAADTAVYYCARGPTLIRGVIDSWGQGTLVTVSS
VL: EIVLTQSPATLSLSPGERATLSCRASQSVRSYLAWYQQKPGQAPRLLIYDASNRATGIPARFSGSGSGTDFTLTISSLEPEDFAVYYCQQRSNWPPTFGQGTKVEIK
B5: XENP37817 TBRII-A_H1.272_L1 (antibody, V domains shown)
VH: QLQVQESGPGLVKPSETLSLTCTVSGGSISSSYFSWGWIRQPPGKGLEWIGSFNYGGKTYYNPSLKSRATISIDTSKNQFSLKLSSVTAADTAVYYCARGPTTIRGVIDSWGQGTLVTVSS
VL: EIVLTQSPATLSLSPGERATLSCRASQSVRSYLAWYQQKPGQAPRLLIYDASNRATGIPARFSGSGSGTDFTLTISSLEPEDFAVYYCQQRSNWPPTFGQGTKVEIK
B6: TBRII-A_H1.51_L1 (antibody, V domains shown)
VH: QLQVQESGPGLVKPSETLSLTCTVSGGSISNSYFSWGWIRQPPGKGLEWIGSFNYGEKTYYNPSLKSRATISIDTSKSQFSLKLSSVTAADTAVYYCPRGPTMIRGVIDSWGQGTLVTVSS
VL: EIVLTQSPATLSLSPGERATLSCRASQSVRSYLAWYQQKPGQAPRLLIYDASNRATGIPARFSGSGSGTDFTLTISSLEPEDFAVYYCQQRSNWPPTFGQGTKVEIK
B7: TBRII-A_H1.29_L1 (antibody, V domains shown)
VH: QLQVQESGPGLVKPSETLSLTCTVSGGSISNSYFTWGWIRQPPGKGLEWIGSFYYGEKTYYNPSLKSRATISIDTSKSQFSLKLSSVTAADTAVYYCPRGPTMIRGVIDSWGQGTLVTVSS
VL: EIVLTQSPATLSLSPGERATLSCRASQSVRSYLAWYQQKPGQAPRLLIYDASNRATGIPARFSGSGSGTDFTLTISSLEPEDFAVYYCQQRSNWPPTFGQGTKVEIK
B8: XENP37819 TBRII-A_H1.273_L1.53 (antibody, V domains shown)
VH: QLQVQESGPGLVKPSETLSLTCTVSGGSISSSYFSWHWIRQPPGKGLEWIGSFYYGGKTYYNPSLKSRATISIDTSKNQFSLKLSSVTAADTAVYYCARGPTTIRGVIDSWGQGTLVTVSS
VL: EIVLTQSPATLSLSPGERATLSCRASQSVRSYLAWYQQKPGQAPRLLIYDASNRATGIPARFSGSGSGTDFTLTISSLEPEDFAVYYCQQRSNYPPTFGQGTKVEIK
B9: XENP37814 TBRII-A_H1.189_L1.53 (antibody, V domains shown)
VH: QLQVQESGPGLVKPSETLSLTCTVSGGSISSSYFSWGWIRQPPGKGLEWIGSFYYGGKTYYNPSLKSRATISIDTSKNQFSLKLSSVTAADTAVYYCARGPTLIRGVIDSWGQGTLVTVSS
VL: EIVLTQSPATLSLSPGERATLSCRASQSVRSYLAWYQQKPGQAPRLLIYDASNRATGIPARFSGSGSGTDFTLTISSLEPEDFAVYYCQQRSNYPPTFGQGTKVEIK
B10: TBRII-A_H1.36_L1 (antibody, V domains shown)
VH: QLQVQESGPGLVKPSETLSLTCTVSGGSISNSYFSWSWIRQPPGKGLEWIGSFYYGEKTYYNPSLKSRATISIDTSKSQFSLKLSSVTAADTAVYYCPRGPTMIRGVIDSWGQGTLVTVSS
VL: EIVLTQSPATLSLSPGERATLSCRASQSVRSYLAWYQQKPGQAPRLLIYDASNRATGIPARFSGSGSGTDFTLTISSLEPEDFAVYYCQQRSNWPPTFGQGTKVEIK
B11: XENP37815 TBRII-A_H1.271_L1.53 (antibody, V domains shown)
VH: QLQVQESGPGLVKPSETLSLTCTVSGGSISSSYFSWHWIRQPPGKGLEWIGSFYYGGKTYYNPSLKSRATISIDTSKNQFSLKLSSVTAADTAVYYCARGPTLIRGVIDSWGQGTLVTVSS
VL: EIVLTQSPATLSLSPGERATLSCRASQSVRSYLAWYQQKPGQAPRLLIYDASNRATGIPARFSGSGSGTDFTLTISSLEPEDFAVYYCQQRSNYPPTFGQGTKVEIK
B12: XENP37822 TBRII-A_H1.201_L1.53 (antibody, V domains shown)
VH: QLQVQESGPGLVKPSETLSLTCTVSGGSISNAYFSWGWIRQPPGKGLEWIGSFYYGGKTYYNPSLKSRATISIDTSKNQFSLKLSSVTAADTAVYYCARGPTLIRGVIDSWGQGTLVTVSS
VL: EIVLTQSPATLSLSPGERATLSCRASQSVRSYLAWYQQKPGQAPRLLIYDASNRATGIPARFSGSGSGTDFTLTISSLEPEDFAVYYCQQRSNYPPTFGQGTKVEIK
B13: TBRII-A_H1.1_L1 (antibody, V domains shown)
VH: QLQVQESGPGLVKPSETLSLTCTVSGGSISNSYFSWGWIRQPPGKGLEWIGSFYYGEKTYYNPSLKSRATISIDTSKSQFSLKLSSVTAADTAVYYCPRGPTVIRGVIDSWGQGTLVTVSS
VL: EIVLTQSPATLSLSPGERATLSCRASQSVRSYLAWYQQKPGQAPRLLIYDASNRATGIPARFSGSGSGTDFTLTISSLEPEDFAVYYCQQRSNWPPTFGQGTKVEIK
B14: XENP37813 TBRII-A_H1.270_L1 (antibody, V domains shown)
VH: QLQVQESGPGLVKPSETLSLTCTVSGGSISSSYFSWGWIRQPPGKGLEWIGSFNYGGKTYYNPSLKSRATISIDTSKNQFSLKLSSVTAADTAVYYCARGPTLIRGVIDSWGQGTLVTVSS
VL: EIVLTQSPATLSLSPGERATLSCRASQSVRSYLAWYQQKPGQAPRLLIYDASNRATGIPARFSGSGSGTDFTLTISSLEPEDFAVYYCQQRSNWPPTFGQGTKVEIK
B15: TBRII-A_H1.30_L1 (antibody, V domains shown)
VH: QLQVQESGPGLVKPSETLSLTCTVSGGSISNSYFYWGWIRQPPGKGLEWIGSFYYGEKTYYNPSLKSRATISIDTSKSQFSLKLSSVTAADTAVYYCPRGPTMIRGVIDSWGQGTLVTVSS
VL: EIVLTQSPATLSLSPGERATLSCRASQSVRSYLAWYQQKPGQAPRLLIYDASNRATGIPARFSGSGSGTDFTLTISSLEPEDFAVYYCQQRSNWPPTFGQGTKVEIK

One test deals with T1, human TGFßRII (antigen of the Octet experiments) (human, UniProt P37173 23-166).
T1 sequence (P37173 23-166): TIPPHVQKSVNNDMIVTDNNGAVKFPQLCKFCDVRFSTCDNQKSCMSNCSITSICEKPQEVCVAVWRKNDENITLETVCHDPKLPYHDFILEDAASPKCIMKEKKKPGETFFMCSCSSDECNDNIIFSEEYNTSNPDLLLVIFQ
Usually Kd stands for the concentration at which binding is half-saturated. Molecule B1 registered a Kd of 8.4 nM.

As to B2, the affinity, expressed as Kd, was 7.43 nM. Same read-out and setting: next, B3: 6.07 nM.

The next test addresses T1, human TGFßRII (antigen of the Octet …). The source holds these as a separate data set.
B4 had a Kd of 16.8 nM. Molecule B5 had a Kd of 58.2 nM.

B6 gave a Kd of 53 nM. For B7, the Kd came to 4.2 nM. Still for that read-out and setting: next, B8: 7.7 nM; B9: 58.9 nM.

In turn, B10 gave a Kd of 3.5 nM. For the molecule B11, binding was characterised by a dissociation constant (Kd) of 411 nM.

In the case of B12, the Kd stood at 46.6 nM. Same read-out and setting: next, B13: 2.1 nM; B14: 31.6 nM; B15: 14 nM.
